Assay [1] addresses T1, 人PD-1抗原 on Jurkat/PD-1 cells (human, UniProt Q15116 25-288).
T1 construct: whole, on cells; Used for the flow cytometry cells and for the Jurkat reporter cells that carry PD-1; also called 过表达人PD-1抗原的Jurkat细胞; Jurkat/hPD-1 NFAT-Luciferase
Nature of the assay: indirect flow cytometry on Jurkat/PD-1 cells.

The target in assay [2] is T2, 人PD-1抗原 (ACRO, Cat.PD-1-H5221) (human, UniProt Q15116 25-167).
T2 construct: Bought antigen coated on ELISA plates; also called human PD-1 antigen; hPD-1
T2 sequence (Q15116 25-167 limits assumed): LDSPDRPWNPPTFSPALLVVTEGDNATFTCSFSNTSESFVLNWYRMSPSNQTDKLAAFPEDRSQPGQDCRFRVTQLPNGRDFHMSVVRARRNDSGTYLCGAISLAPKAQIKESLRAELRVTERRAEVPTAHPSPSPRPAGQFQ
Nature of the assay: indirect ELISA, human PD-1 coated. In general terms: ELISA stands for enzyme-linked immunosorbent assay.

T1 sequence (Q15116 25-288): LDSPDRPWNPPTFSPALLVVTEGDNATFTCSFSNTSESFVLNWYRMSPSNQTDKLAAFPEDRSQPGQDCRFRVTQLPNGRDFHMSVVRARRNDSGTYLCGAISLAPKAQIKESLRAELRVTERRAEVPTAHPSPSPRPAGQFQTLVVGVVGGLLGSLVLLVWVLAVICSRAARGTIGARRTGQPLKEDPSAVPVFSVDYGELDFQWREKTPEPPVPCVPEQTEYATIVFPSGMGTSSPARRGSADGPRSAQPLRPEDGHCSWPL

B1: hmp12 (antibody, V domains shown)
VH: EVQLVESGGGLVKPGGSLRLSCAASGFTFSSYDMSWVRQAPGKGLEWVATISGGGSYTYYADSVKGRFTISRDNAKNSLYLQMNSLRAEDTALYYCASPYAGYFDVWGQGTMVTVSS
VL: DIQMTQSPSSLSASVGDRVTITCSASSSISSNYLHWYQQKPGKAPKLLIYRTSNLQSGVPARFSGSGSGTSYSLTISSLQPEDFATYYCQQGSSIPLTFGQGTKLEIK
notes: also called 人源化抗体hmp12
With B1, the binding result in assay [1] and in assay [2] was “binds” each time.

Values taken from CN113234160A (GUANGZHOU EXCELMAB BIOMEDICAL TECH CO LTD, dated 2021).
